In patent publication US12545899B2, “Luciferase enzymes for use with thermostable luciferins in bioluminescent assays” (Promega Corporation, priority 2018, dated 2026):

Tests used:
[1] = Effect of V300G, L305F, S306P on activity with CS0333 (FIG. 13); type: biochemical; conditions: 1 mM ATP; 100 nM to 1 mM substrate; Bright-Glo buffer
Procedure: FIG. 13 includes a representative graph of the effects of amino acid substitutions V300G, L305F, and S306P on enzyme activity with the CS0333 analog. Reagent compositions included […]+1 mM ATP+100 nM to 1 mM substrate in Bright-Glo™ buffer.

[2] = Kinetic analysis of ATG-2889 with CS0333 versus luciferin (FIG. 16B); type: biochemical
Procedure: FIG. 16B provides similar results. […] The composition was incubated for 3 mins prior to quantification.

[3] = E. coli lysate activity of position 244/339 variants with CS0333 (FIG. 7); type: biochemical; conditions: E. coli lysates; Detection Reagent; 0.5 mM substrate; 1 mM ATP; 3 mins
Procedure: FIG. 7 includes a representative graph assessing the activities of luciferase enzyme variants with amino acid substitutions at positions 244 and 339 of SEQ ID NO: 1 in the presence of 5,5-disubstituted luciferin analog substrate. Assays were prepared by combining overnight E. coli culture expressing enzymes with Detection Reagent+ATP+substrate (luciferin analog compounds CS0280, CS0333, CS0510, and CS0326), and luminescence was read at 3 mins. Reagent compositions included 50 μl lysate of the thermostable luciferase variant of Ppe variant of SEQ ID NO: 1, 0.5 mM substrate, and 1 mM ATP.

[4] = Activity of ATG-2889 variants (positions 344/396) with D/L-luciferin; type: biochemical; conditions: substrate D/L-luciferin
Description: (§1) Additionally, several other amino acid substitutions, including those not considered to be conservative or semi-conservative, were made to ATG-2889, as shown below in Table 2.

[5] = Activity of ATG-2889 variants (positions 344/396) with CS0333; type: biochemical; conditions: substrate CS0333
Description: as §1

[6] = Kinetic analysis of thermostable variants with D/L-luciferin (Tables 13, 14); type: biochemical; conditions: 2 mM ATP
[7] = Vmax and Km of Ppe variant and ATG-3707 with D/L-luciferin; type: biochemical
[8] = Kinetic analysis of thermostable variants with D/L-luciferin (Table 10); type: biochemical
Procedure: Experiments were also conducted to evaluate the activities (i.e. Vmax and Km) of the various thermostable luciferase variants of Ppe (SEQ ID NO: 1) described above.
(§2) Tables 10 and 11 include representative results of kinetic analysis of the thermostable variants with D/L luciferin, CS0333, and CS0280. […] MK0135 and MK0137 have amino acid substitutions that improve thermostability relative to MK0133 and MK0134, respectively, while retaining activity on the luciferin analogs CS0333 and CS0280.

[9] = Luminescence at 1 mM CS0280 (Table 11); type: biochemical; conditions: 1 mM substrate, 1 mM ATP
Description: as §2

[10] = Kinetic analysis of Ppe variant, ATG-3707, ATG-4117 with D/L-luciferin; type: biochemical
Procedure: Kinetic tests of these luciferase enzyme variants were also conducted. […] Reagent compositions included 0.005 mg/ml luciferase enzyme variant+1 mM ATP, and 0.1 fM to 1 mM substrate in Bright-Glo™ (BG) or Detection Reagent (DR) buffers. The composition was incubated for 3 mins and read on GloMax® Multi+platform.
Table 8 below includes representative results of kinetic analysis of the thermostable luciferase variants of Ppe (SEQ ID NO: 1), ATG-3707, and ATG-4117. The Ppe variant (SEQ ID NO: 1) was tested with D/L-luciferin, and ATG-3707, and ATG-4117 were tested with CS0280 and CS0333.

[11] = Luminescence at 1 mM D/L-luciferin (Table 11); type: biochemical; conditions: 1 mM substrate, 1 mM ATP
Description: as §2

[12] = Differential scanning fluorimetry (DSF) analysis; type: physicochemical; conditions: Table 9A
Method in brief: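 Thermal melt with 5× final Sypro Orange: ramp 1° C/min from 30 to 95° C, reading each 60 s, derivative of fluorescence plotted by temperature. Luciferase variants were in 20 mM HEPES pH 7.5, 200 mM NaCl, 1 mM EDTA; other enzymes in 50 mM HEPES pH 7.5, 100 mM NaCl, 2 mM EDTA.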

[13] = Luminescence at 1 mM CS0333 (Table 11); type: biochemical; conditions: 1 mM substrate, 1 mM ATP
Description: as §2

[14] = Activity of ATG-2671 with luciferin analogs; type: biochemical; conditions: data not shown
Procedure: FIG. 15 includes representative graphs of kinetic activity of the luciferase enzyme variant ATG-2671 with D/L-luciferin. […] The composition was incubated for 3 mins and read on GloMax® Multi+platform.

[15] = Km for ATP with saturating substrate (FIG. 18); type: biochemical; conditions: with CS0333, relative to Ppe variant with luciferin
Procedure: Reagent composition included 1 mM substrate, 100 fM-100 uM ATP (10-fold dilutions), and 0.1 mg/ml enzyme. […] Thus, the combination of the ATG-3674 luciferase enzyme variant with the thermostable CS0333 luciferin analog substrate will be effective in ATP detection/quantification assays.

B1: ATG2889: SEQ ID NO: 12; H244W+T344A+I396K (protein)
chain: MADKNILYGPEPFYPLEDGTAGEQMFDALSRYAAIPGCIALTNAHTKENVLYEEFLKLSCRLAESFKKYGLKQNDTIAVCSENSLQFFLPVIASLYLGIIVAPVNDKYIERELIHSLGIVKPRIVFCSKNTFQKVLNVKSKLKSIETIIILDLNEDLGGYQCLNNFISQNSDSNLDVKKFKPYSFNRDDQVASIMFSSGTTGLPKGVMLTHKNIVARFSIAKDPTFGNAINPTSAILTVIPFHWGFGMMTTLGYFTCGFRVVLMHTFEEKLFLQSLQDYKVESTLLVPTLMAFLAKSALVEKYDLSHLKEIASGGAPLSKEIGEMVKKRFKLNFVRQGYGLTEATSAVLITPKGDAKPGSTGKIVPLHAVKVVDPTTGKILGPNEPGELYFKGPMKMKGYYNNEEATKAIIDNDGWLRSGDIAYYDNDGHFYIVDRLKSLIKYKGYQVAPAEIEGILLQHPYIVDAGVTGIPDEAAGELPAAGVVVQTGKYLNEQIVQDYVASQVSTAKWLRGGVKFLDEIPKGSTGKIDRKVLRQMLEKHTNGHHHHHHHH
With B1 as the molecule, how does the “activity with CS0333 relative to Ppe variant (SEQ ID NO: 1)” value [1] read?
The value was “improved activity”.

What about the “Vmax with CS0333 lower than the Vmax for luciferin” value ([2]; Bright-Glo Buffer) of the same molecule?
Its value is 23.1 fold.

And the “Vmax with CS0333 lower than the Vmax for luciferin” value ([2]; Detection Reagent buffer)?
The value was 42.9 fold.

What about the “activity above background with CS0333” value [3] of the same molecule?
Its value is “approximately 285 fold”.

What about the “activity with D/L-luciferin” value [4] of the same molecule?
The value was 5507240.

What about the “activity with CS0333” value [5] of the same molecule?
The value was 679219.

B2: Ppe variant: thermostable luciferase variant of Photuris pennsylvanica (Ppe) of SEQ ID NO: 1 (protein)
chain: MADKNILYGPEPFYPLEDGTAGEQMFDALSRYAAIPGCIALTNAHTKENVLYEEFLKLSCRLAESFKKYGLKQNDTIAVCSENSLQFFLPVIASLYLGIIVAPVNDKYIERELIHSLGIVKPRIVFCSKNTFQKVLNVKSKLKSIETIIILDLNEDLGGYQCLNNFISQNSDSNLDVKKFKPYSFNRDDQVASIMFSSGTTGLPKGVMLTHKNIVARFSIAKDPTFGNAINPTSAILTVIPFHHGFGMMTTLGYFTCGFRVVLMHTFEEKLFLQSLQDYKVESTLLVPTLMAFLAKSALCEKYDLSHLKEIASGGAPLSKEIGEMVKKRFKLNFVRQGYGLTETTSAVLITPKGDAKPGSTGKIVPLHAVKVVDPTTGKILGPNEPGELYFKGPMIMKGYYNNEEATKAIIDNDGWLRSGDIAYYDNDGHFYIVDRLKSLIKYKGYQVAPAEIEGILLQHPYIVDAGVTGIPDEAAGELPAAGVVVQTGKYLNEQIVQDYVASQVSTAKWLRGGVKFLDEIPKGSTGKIDRKVLRQMLEKHTNGHHHHHHHH
With B2 as the molecule, how does the Km ([6]; BrightGlo Buffer) read?
The Km was 1.03 µM.

And the “Vmax (RLU)” value ([6]; BrightGlo Buffer)?
The value was 14,958,892 RLU.

What about the Km ([6]; Detection Reagent Buffer) of the same molecule?
The Km was 28.3 µM.

What about the “Vmax (RLU)” value ([6]; Detection Reagent Buffer) of the same molecule?
Its value is 5,686,042 RLU.

And the Km ([7]; BrightGlo Buffer)?
The Km was 0.315 µM.

And the “Vmax (RLU)” value ([7]; BrightGlo Buffer)?
The value was 23,319,814 RLU.

And the Km ([7]; CellTiterGlo buffer)?
The Km was 1060 µM.

And the “Vmax (RLU)” value ([7]; CellTiterGlo buffer)?
Its value is 5,771,822 RLU.

And the Km ([7]; Detection Reagent Buffer)?
The Km was 10.8 µM.

And the “Vmax (RLU)” value ([7]; Detection Reagent Buffer)?
Its value is 10,017,520 RLU.

What about the Km ([8]; BrightGlo Buffer) of the same molecule?
The Km was 0.667 µM.

And the “Vmax (RLU)” value ([8]; BrightGlo Buffer)?
The value was 18,332,536 RLU.

And the Km ([8]; Detection Reagent Buffer)?
The Km was 9.38 µM.

And the “Vmax (RLU)” value ([8]; Detection Reagent Buffer)?
Its value is 9,350,431 RLU.

What about the “Vmax (RLU) CS0280 BrightGlo Buffer” value ([9]; BrightGlo Buffer) of the same molecule?
The value was 3,689 RLU.

What about the “Vmax (RLU) CS0280 Detection Reagent Buffer” value ([9]; Detection Reagent Buffer) of the same molecule?
Its value is 394 RLU.

What about the “activity above background with CS0333” value [3] of the same molecule?
Its value is “below background (inhibited)”.

And the Km ([10]; BrightGlo)?
Its Km is 0.466 µM.

And the “Vmax (RLU)” value ([10]; BrightGlo)?
Its value is 23,226,184 RLU.

And the Km ([10]; Detection Reagent)?
Its Km is 11 µM.

What about the “Vmax (RLU)” value ([10]; Detection Reagent) of the same molecule?
The value was 12,592,733 RLU.

And the “Vmax (RLU) D/L-luciferin BrightGlo Buffer” value ([11]; BrightGlo Buffer)?
The value was 30,177,800 RLU.

What about the “Vmax (RLU) D/L-luciferin Detection Reagent Buffer” value ([11]; Detection Reagent Buffer) of the same molecule?
The value was 17,201,600 RLU.

What about the “DSF Tm (° C.)” value [12] of the same molecule?
Its value is 79 °C.

And the “activity with D/L-luciferin” value [4]?
The value was 7118320.

And the “activity with CS0333” value [5]?
The value was 178.

And the “Vmax (RLU) CS0333 BrightGlo Buffer” value ([13]; BrightGlo Buffer)?
The value was 862 RLU.

And the “Vmax (RLU) CS0333 Detection Reagent Buffer” value ([13]; Detection Reagent Buffer)?
Its value is 724 RLU.

B3: ATG-2671: luciferase enzyme variant ATG-2671 (G245A+L285I+G315A) (protein)
chain: MADKNILYGPEPFYPLEDGTAGEQMFDALSRYAAIPGCIALTNAHTKENVLYEEFLKLSCRLAESFKKYGLKQNDTIAVCSENSLQFFLPVIASLYLGIIVAPVNDKYIERELIHSLGIVKPRIVFCSKNTFQKVLNVKSKLKSIETIIILDLNEDLGGYQCLNNFISQNSDSNLDVKKFKPYSFNRDDQVASIMFSSGTTGLPKGVMLTHKNIVARFSIAKDPTFGNAINPTSAILTVIPFHHAFGMMTTLGYFTCGFRVVLMHTFEEKLFLQSLQDYKVESTILVPTLMAFLAKSALCEKYDLSHLKEIASGAAPLSKEIGEMVKKRFKLNFVRQGYGLTETTSAVLITPKGDAKPGSTGKIVPLHAVKVVDPTTGKILGPNEPGELYFKGPMIMKGYYNNEEATKAIIDNDGWLRSGDIAYYDNDGHFYIVDRLKSLIKYKGYQVAPAEIEGILLQHPYIVDAGVTGIPDEAAGELPAAGVVVQTGKYLNEQIVQDYVASQVSTAKWLRGGVKFLDEIPKGSTGKIDRKVLRQMLEKHTNGHHHHHHHH
With B3 as the molecule, how does the “activity with luciferin analogs” value [14] read?
The value was “not active”.

B4: ATG-3674: SEQ ID NO: 25; H244W+T344A+I396K+S193A+N228D+L305F+S306P (protein)
chain: MADKNILYGPEPFYPLEDGTAGEQMFDALSRYAAIPGCIALTNAHTKENVLYEEFLKLSCRLAESFKKYGLKQNDTIAVCSENSLQFFLPVIASLYLGIIVAPVNDKYIERELIHSLGIVKPRIVFCSKNTFQKVLNVKSKLKSIETIIILDLNEDLGGYQCLNNFISQNSDSNLDVKKFKPYSFNRDDQVAAIMFSSGTTGLPKGVMLTHKNIVARFSIAKDPTFGDAINPTSAILTVIPFHWGFGMMTTLGYFTCGFRVVLMHTFEEKLFLQSLQDYKVESTLLVPTLMAFLAKSALVEKYDFPHLKEIASGGAPLSKEIGEMVKKRFKLNFVRQGYGLTEATSAVLITPKGDAKPGSTGKIVPLHAVKVVDPTTGKILGPNEPGELYFKGPMKMKGYYNNEEATKAIIDNDGWLRSGDIAYYDNDGHFYIVDRLKSLIKYKGYQVAPAEIEGILLQHPYIVDAGVTGIPDEAAGELPAAGVVVQTGKYLNEQIVQDYVASQVSTAKWLRGGVKFLDEIPKGSTGKIDRKVLRQMLEKHTNGHHHHHHHH
For B4, which “Km values for ATP” value [15] is on record?
Its value is “equivalent to improved Km values for ATP”.
